What was measured:
[1] = target: Human Fc (human); experiment: ELISA, negative control
[2] = target: Mouse ACVR2A (mouse) (UniProt P27038); experiment: ELISA
[3] = target: human Fc (human); experiment: ELISA; negative control
[4] = target: human Fc (human); experiment: ELISA, negative control
[5] = target: human ACVR2A (human) (UniProt P27037); experiment: ELISA
Sequence of human ACVR2A (human) (P27037 20-135 limits assumed): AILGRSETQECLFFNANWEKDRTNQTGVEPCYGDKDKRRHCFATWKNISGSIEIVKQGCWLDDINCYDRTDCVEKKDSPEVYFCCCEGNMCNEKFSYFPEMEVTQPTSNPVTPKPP

Sequence of Mouse ACVR2A (mouse) (P27038 20-135 limits assumed): as the sequence (P27037 20-135 limits assumed) above, with K20R, V73I counted along it

Row | optical density [3] | Binder | other results
1 | 0.266 OD | 365_C09 (antibody, V domains shown) VH: EVQLLESGGGLVQPGGSLRLSCAASGFTFSDYGMNWVRQAPGKGLEWVSGINYNGGYKSYADSVKGRFTISRDNSKNTLYLQMNSLRAEDTAVYYCARSATWHDTHLDYWGQGTLVTVSS VL: DIQMTQSPSSLSASVGDRVTITCRASQSIVSYVNWYQQKPGKAPKLLIYAATSRASGVPSRFSGSGSGTDFTLTISSLQPEDFATYYCQQSYDTPLTFGGGTKVEIK | 
2 | 0.199 OD | 374_H08 (antibody, V domains shown) VH: EVQLLESGGGLVQPGGSLRLSCAASGFTFDSYSMNWVRQAPGKGLEWVSGINYNGGYTGYADSVKGRFTISRDNSKNTLYLQMNSLRAEDTAVYYCARSATWHDTHLDYWGQGTLVTVSS VL: DIQMTQSPSSLSASVGDRVTITCRASQSILSYLNWYQQKPGKAPKLLIYAATSLHSGVPSRFSGSGSGTDFTLTISSLQPEDFATYYCQQSYENPLTFGGGTKVEIK | 
3 | 0.162 OD | 374_E09 (antibody, V domains shown) VH: EVQLLESGGGLVQPGGSLRLSCAASGFTFSDYSMNWVRQAPGKGLEWVSGINYNGGYKGYADSVKGRFTISRDNSKNTLYLQMNSLRAEDTAVYYCARSATWHDTHLDYWGQGTLVTVSS VL: DIQMTQSPSSLSASVGDRVTITCRASQSIVTYLNWYQQKPGKAPKLVIYAATSRASGVPSRFSGSGSGTDFTLTISSLQPEDFATYYCQQSYDSPLTFGGGTKVEIK | 
4 | 0.172 OD | 374_B09 (antibody, V domains shown) VH: EVQLLESGGGLVQPGGSLRLSCAASGFTFSSYSMNWVRQAPGKGLEWVSGINYNGGYKSYADSVKGRFTISRDNSKNTLYLQMNSLRAEDTAVYYCARSATWHDTHLDYWGQGTLVTVSS VL: DIQMTQSPSSLSASVGDRVTITCRASQSIVRYLNWYQQKPGKAPKLVIYAATSLASGVPSRFSGSGSGTDFTLTISSLQPEDFATYYCQQSYELPLTFGGGTKVEIK | 
5 | 0.4 OD | 369_B12 (antibody, V domains shown) VH: EVQLLESGGGLVQPGGSLRLSCAASGFTFDSYSMNWVRQAPGKGLEWVSGINYNGGYKSYADSVKGRFTISRDNSKNTLYLQMNSLRAEDTAVYYCARSATWHDTHLDYWGQGTLVTVSS VL: DIQMTQSPSSLSASVGDRVTITCRASQSILTYVNWYQQKPGKAPKLLIYATTSLASGVPSRFSGSGSGTDFTLTISSLQPEDFATYYCQQSYDSPLTFGGGTKVEIK | 

Further lines, the binder ahead of its results:

Row | Binder | optical density [3] | other results
6 | 369_A03 (antibody, V domains shown) VH: EVQLLESGGGLVQPGGSLRLSCAASGFTFSSYGMNWVRQAPGKGLEWVSNINYNGGYTGYADSVKGRFTISRDNSKNTLYLQMNSLRAEDTAVYYCARSANWHDTALDYWGQGTLVTVSS VL: DIQMTQSPSSLSASVGDRVTITCRASQSILTYLNWYQQKPGKAPKLLIYAVTSRHSGVPSRFSGSGSGTDFTLTISSLQPEDFATYYCQQGYDLPLTFGGGTKVEIK |  | optical density [1]: 0.347 OD; optical density [2]: 0.561 OD
7 | 371_C09 (antibody, V domains shown) VH: EVQLLESGGGLVQPGGSLRLSCAASGFTFDSYSMNWVRQAPGKGLEWVSGINYNGGYKSYADSVKGRFTISRDNSKNTLYLQMNSLRAEDTAVYYCARSATWHDTHLDYWGQGTLVTVSS VL: DIQMTQSPSSLSASVGDRVTITCRASQSILTYVNWYQQKPGKAPKLLIYAASSLQSGVPSRFSGSGSGTDFTLTISSLQPEDFATYYCQQSYDNPLTFGGGTKVEIK | 0.308 OD | 
8 | 374_D12 (antibody, V domains shown) VH: EVQLLESGGGLVQPGGSLRLSCAASGFTFDSYSMNWVRQAPGKGLEWVSGINYNGGYTGYADSVKGRFTISRDNSKNTLYLQMNSLRAEDTAVYYCARSATWHDTHLDYWGQGTLVTVSS VL: DIQMTQSPSSLSASVGDRVTITCRASQSIVSYVNWYQQKPGKAPKLVIYAATSRASGVPSRFSGSGSGTDFTLTISSLQPEDFATYYCQQSYDLPLTFGGGTKVEIK | 0.235 OD | 
9 | 374_C02 (antibody, V domains shown) VH: EVQLLESGGGLVQPGGSLRLSCAASGFTFDSYSMNWVRQAPGKGLEWVSGINYNGGYTGYADSVKGRFTISRDNSKNTLYLQMNSLRAEDTAVYYCARSATWHDTHLDYWGQGTLVTVSS VL: DIQMTQSPSSLSASVGDRVTITCRASQSILSYLNWYQQKPGKAPKLLIYAATSRHSGVPSRFSGSGSGTDFTLTISSLQPEDFATYYCQQSYDSPLTFGGGTKVEIK | 0.167 OD | 
10 | 369_B02 (antibody, V domains shown) VH: EVQLLESGGGLVQPGGSLRLSCAASGFTFDSYSMNWVRQAPGKGLEWVSGINYNGGYKSYADSVKGRFTISRDNSKNTLYLQMNSLRAEDTAVYYCARSATWHDTHLDYWGQGTLVTVSS VL: DIQMTQSPSSLSASVGDRVTITCRASQSILSYLNWYQQKPGKAPKLVIYAATSRASGVPSRFSGSGSGTDFTLTISSLQPEDFATYYCQQSYNLPLTFGGGTKVEIK | 0.456 OD | 
11 | 370_C04 (antibody, V domains shown) VH: EVQLLESGGGLVQPGGSLRLSCAASGFTFSSYGMNWVRQAPGKGLEWVASINYNSGYTSYADSVKGRFTISRDNSKNTLYLQMNSLRAEDTAVYYCARSATWHDTHLDYWGQGTLVTVSS VL: DIQMTQSPSSLSASVGDRVTITCRASQSILSYLNWYQQKPGKAPKLLIYAASSLQSGVPSRFSGSGSGTDFTLTISSLQPEDFATYYCQQSYENPLTFGGGTKVEIK | 0.334 OD | 
12 | 369_F08 (antibody, V domains shown) VH: EVQLLESGGGLVQPGGSLRLSCAASGFTFSDYGMHWVRQAPGKGLEWVSGINYNSGYTSYADSVKGRFTISRDNSKNTLYLQMNSLRAEDTAVYYCARGANWHDTALDYWGQGTLVTVSS VL: DIQMTQSPSSLSASVGDRVTITCRASQSILSYLNWYQQKPGKAPKLLIYAASSLQSGVPSRFSGSGSGTDFTLTISSLQPEDFATYYCQQSYDLPLTFGGGTKVEIK |  | optical density [4]: 0.302 OD; optical density [5]: 0.503 OD; optical density [2]: 0.589 OD
13 | 369_F12 (antibody, V domains shown) VH: EVQLLESGGGLVQPGGSLRLSCAASGFTFSSYSMNWVRQAPGKGLEWVASINYNSGYKSYADSVKGRFTISRDNSKNTLYLQMNSLRAEDTAVYYCARSATWHDTHLDYWGQGTLVTVSS VL: DIQMTQSPSSLSASVGDRVTITCRASQSIISYLNWYQQKPGKAPKLLIYAVTSLASGVPSRFSGSGSGTDFTLTISSLQPEDFATYYCQQSYENPLTFGGGTKVEIK | 0.434 OD | 

From patent US20210380703A1
